The values that follow are results of earlier work, collected in paper PMC5132258.

The target in the series is His89 (UniProt position 89, VLYCVHQRIDV). The settings on record: not stated (folded wild-type matrix protein implied; myristoylation state not given).

In general, pKa refers to the pH at which an ionisable group is half protonated. On to “HIV-1 matrix protein p17 (MA), N-terminal domain of the Gag polyprotein (Human immunodeficiency virus type 1)”, for which the pKa is 6.5.
